From US20250381223A1 (UTC THERAPEUTICS SHANGHAI, published 2025) come the findings set out here.

The target in assay [1] is T1, CD40-Fc (human, UniProt P25942).
T1 construct: part fused to Fc; staining reagent of the flow cytometry; also called recombinant human CD40-Fc antigen protein
Briefly: flow cytometry of T cells co-electroporated with 15 µg diabody mRNA and 2 µg M12 CAR mRNA; CD40-Fc + PE-anti-Fc; E1 without mRNA: 0.56.

In assay [2] the target is T1, CD40-Fc. Briefly: flow cytometry of T cells co-electroporated with 15 µg diabody mRNA and 0.5 µg 4D5.BBZ mRNA; CD40-Fc + PE-anti-IgG-Fc; E1 without mRNA: 0.27.
Assay [3] has as its target T2, BCMA-Fc recombinant protein (human, UniProt Q02223 1-54).
T2 construct: construct not described; not shown: Fc part
T2 sequence (looked up): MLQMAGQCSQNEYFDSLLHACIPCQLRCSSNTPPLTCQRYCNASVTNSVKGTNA
Briefly: flow cytometry; CAR-T cells stained with 5 µg/mL BCMA-Fc, anti-human IgG Fc. On the procedure:
(5) Screening for functional anti-BCMA scFv in T cells: the anti-BCMA scFv was constructed into a bicistronic lentiviral CAR expression vector containing an IRES-truncated EGFR (tEGFR) expression cassette. The lentivirus was produced by transient transfection of 293T cells, followed by purification by ultracentrifugation and concentration. T cells were transduced with the CAR lentivirus to generate CAR-T cells, which were then cultured for 10 days. 10 days after lentivirus transduction, CAR-T cells were collected and stained with 5 μg/mL CD19-Fc protein (Ctrl Fc protein) or BCMA-Fc recombinant protein for 30 min at 4° C. After washing, the CAR-T cells were stained with the anti-human IgG Fc and anti-EGFR mAb. The samples were analyzed using a flow cytometer.

B1: 4.5 (bispecific antibody)
scFv-G4S-scFv: QVQLVQSGAEVKKPGSSVKVSCKASGGTFSSYAISWVRQAPGQGLEWMGMINPSGGTTSYAQKFQGRVTMTRDTSTSTVYMELSSLRPEDTAVYYCARGFRMDQWGQGTLVTVSSGGGGSGGGGSGGGGSQSALTQPPSASGSPGQSVTISCTGTSSDVGAYNFVSWYQQHPGNAPKLIIYDVRKRPSGIPDRFSASKSGNTASLTVSGLQADDEADYYCSSYAGNNNLVFGGGTKLTVLGGGGSDIQLTQSPSSLSVSVGDRVTISCRASESVEYYVTSLMQWYQQKPGQAPKLLIFAASNVESGVPSRFSGSGSGTNFTLTISSVQEEDFAMYFCQQSRKVPYTFGGGTKLEIKGGGGSGGGGSGGGGSQVKLQESGPGLVKPSETLSITCTVSGFSLSDYGVHWVRQSPGKGLEWLGVIWAGGGTNYNSALMSRKTISKDNSKSQVFLKMSSLTAADTAVYYCARDKGYSYYYSMDYWGQGTTVTVSS
notes: expressed from mRNA in T cells
Consider B1, for which the “% of cells in the positive gate” value turned out to be 65 in the assay with CD40-Fc [1] and 72.2 with CD40-Fc [2].

B2: BCMA31 (scFv)
scFv: QSALTQPPSASGSPGQSVTISCTGTSSDVGTYNYVSWYQQHPGKAPKLMIYDVNQRPSGVPDRFSGSKSGNTASLTVSGLQAEDEADYYCSSYGGSNNLVFGGGTKVTVLGGGGSGGGGSGGGGSEVQLVESGGGLIQPGGSLRLSCAASGFTFSSYWMSWVRQSPGKGLEWVANIKPDGSDKYYVDSVKGRFTISRDNAKNSLDLQMNSLRGEDTAIYYCARGATTYGSWGQGTLVTVSS
notes: On lentivirus-transduced T cells as CAR; also called anti-BCMA scFv BCMA31
On to B2, for which the binding result in assay [3] was “binds”.

B3: 4.4 (bispecific antibody)
scFv-G4S-scFv: QVKLQESGPGLVKPSETLSITCTVSGFSLSDYGVHWVRQSPGKGLEWLGVIWAGGGTNYNSALMSRKTISKDNSKSQVFLKMSSLTAADTAVYYCARDKGYSYYYSMDYWGQGTTVTVSSGGGGSGGGGSGGGGSDIQLTQSPSSLSVSVGDRVTISCRASESVEYYVTSLMQWYQQKPGQAPKLLIFAASNVESGVPSRFSGSGSGTNFTLTISSVQEEDFAMYFCQQSRKVPYTFGGGTKLEIKGGGGSQVQLVQSGAEVKKPGSSVKVSCKASGGTFSSYAISWVRQAPGQGLEWMGMINPSGGTTSYAQKFQGRVTMTRDTSTSTVYMELSSLRPEDTAVYYCARGFRMDQWGQGTLVTVSSGGGGSGGGGSGGGGSQSALTQPPSASGSPGQSVTISCTGTSSDVGAYNFVSWYQQHPGNAPKLIIYDVRKRPSGIPDRFSASKSGNTASLTVSGLQADDEADYYCSSYAGNNNLVFGGGTKLTVL
notes: as for B1
In the case of B3, the entries for the “% of cells in the positive gate” value with CD40-Fc [1] and with CD40-Fc [2] were 51 and 55.4, respectively.

B4: BCMA32 (scFv)
scFv: QSALTQPASVSGSPGQSITISCTGTSSDVGGYNYVSWYQQHPGKAPKLMIYDVSKRPSGVSNRFSGSKSGNTASLTISGLQAEDEADYYCSSYTSSSTVVFGGGTKLTVLGGGGSGGGGSGGGGSQVQLQESGAEVKKPGSSVKVSCKASGGTFSRYAISWVRQAPGQGLEWMGGIIPFFGTSDYAQKFQGRVTITADESTSTAYMDLSRLRSEDTAVYYCAVRVATTGTGFYYAMDVWGQGTTVTVSS
notes: On lentivirus-transduced T cells as CAR; also called anti-BCMA scFv BCMA32
Turning to B4, in assay [3], the binding result was “binds”.

B5: BCMA34 (scFv)
scFv: QPGLTQPPSVSKGLRQTATLTCTGNSNNVGNQGAAWLQQHQGHPPKLLSYRNNNRPSGISERFSASRSGNTASLTITGLQPEDEADYYCSAWDSSLSARVFGGGTKLTVLGGGGSGGGGSGGGGSQVQLVQSGAEVKKPGASVKVSCKTSGYTFSNPFVHWVRQAPGQGLEWVGIINLSGGDTLYAQKFQGGVTMTRDTSTNTAYMELTSLTFEDTAVYYCARDQAGFGDSAYWGQGTLVTVSS
notes: On lentivirus-transduced T cells as CAR; also called anti-BCMA scFv BCMA34
Regarding B5, the binding result in assay [3] is reported as “binds”.

B6: 4.3 (bispecific antibody)
scFv-G4S-scFv: QVKLQESGPGLVKPSETLSITCTVSGFSLSDYGVHWVRQSPGKGLEWLGVIWAGGGTNYNSALMSRKTISKDNSKSQVFLKMSSLTAADTAVYYCARDKGYSYYYSMDYWGQGTTVTVSSGGGGSGGGGSGGGGSDIQLTQSPSSLSVSVGDRVTISCRASESVEYYVTSLMQWYQQKPGQAPKLLIFAASNVESGVPSRFSGSGSGTNFTLTISSVQEEDFAMYFCQQSRKVPYTFGGGTKLEIKGGGGSQSALTQPPSASGSPGQSVTISCTGTSSDVGAYNFVSWYQQHPGNAPKLIIYDVRKRPSGIPDRFSASKSGNTASLTVSGLQADDEADYYCSSYAGNNNLVFGGGTKLTVLGGGGSGGGGSGGGGSQVQLVQSGAEVKKPGSSVKVSCKASGGTFSSYAISWVRQAPGQGLEWMGMINPSGGTTSYAQKFQGRVTMTRDTSTSTVYMELSSLRPEDTAVYYCARGFRMDQWGQGTLVTVSS
notes: as for B1
As to B6, the “% of cells in the positive gate” value in the assay with CD40-Fc [1] is 36.3; with CD40-Fc [2], 43.5.

B7: BCMA33 (scFv)
scFv: QSALTQPPSASGSPGQSVTISCTGTSSDVGGYNYVSWYQQHPGKAPKLMIYEVSKRPSGVPDRFSGSKSGNTASLTVSGLQAEDEADYFCSSYAGSNNFVVFGGGTKLTVLGGGGSGGGGSGGGGSEVQLVESGGGLVQPGRSLRLSCAASGFTFDDYAMHWVRQAPGKGLEWVSGISWNSGSIGYADSVKGRFTISRDNAKNSLYLQMNSLRAEDTALYYCAKVGASAALGAFDIWGQGTMVTVSS
notes: On lentivirus-transduced T cells as CAR; also called anti-BCMA scFv BCMA33
With B7, the binding result in assay [3] is “binds”.

B8: BCMA30 (scFv)
scFv: DIQMTQSPSFLSASVGDRVTITCRASQGISSYLAWYQQKPGKAPKLLIYAASTLQSGVPSRFSGSGSGTEFTLTISSLQPEDFATYYCQQLNSYPPWTFGQGTKVEIKGGGGSGGGGSGGGGSQVQLVQSGAEVKKPGESLKISCKGSGYRFTSYWIGWVRQMPGKGLEWMGIIYPGDSDTRYSPPFQGQVTISADKSIDTAYLQWSSLKASDTAMYYCARLDASGSQRGGMDVWGQGTTVTVSS
notes: On lentivirus-transduced T cells as CAR; also called anti-BCMA scFv BCMA30
In the case of B8, the binding result in assay [3] is reported as “binds”.

B9: 4.1 (bispecific antibody)
scFv-G4S-scFv: DIQLTQSPSSLSVSVGDRVTISCRASESVEYYVTSLMQWYQQKPGQAPKLLIFAASNVESGVPSRFSGSGSGTNFTLTISSVQEEDFAMYFCQQSRKVPYTFGGGTKLEIKGGGGSGGGGSGGGGSQVKLQESGPGLVKPSETLSITCTVSGFSLSDYGVHWVRQSPGKGLEWLGVIWAGGGTNYNSALMSRKTISKDNSKSQVFLKMSSLTAADTAVYYCARDKGYSYYYSMDYWGQGTTVTVSSGGGGSQSALTQPPSASGSPGQSVTISCTGTSSDVGAYNFVSWYQQHPGNAPKLIIYDVRKRPSGIPDRFSASKSGNTASLTVSGLQADDEADYYCSSYAGNNNLVFGGGTKLTVLGGGGSGGGGSGGGGSQVQLVQSGAEVKKPGSSVKVSCKASGGTFSSYAISWVRQAPGQGLEWMGMINPSGGTTSYAQKFQGRVTMTRDTSTSTVYMELSSLRPEDTAVYYCARGFRMDQWGQGTLVTVSS
notes: as for B1
As for B9, the “% of cells in the positive gate” value was 95.8 with CD40-Fc [1] and 95.3 in the assay with CD40-Fc [2].

B10: 4.2 (bispecific antibody)
scFv-G4S-scFv: DIQLTQSPSSLSVSVGDRVTISCRASESVEYYVTSLMQWYQQKPGQAPKLLIFAASNVESGVPSRFSGSGSGTNFTLTISSVQEEDFAMYFCQQSRKVPYTFGGGTKLEIKGGGGSGGGGSGGGGSQVKLQESGPGLVKPSETLSITCTVSGFSLSDYGVHWVRQSPGKGLEWLGVIWAGGGTNYNSALMSRKTISKDNSKSQVFLKMSSLTAADTAVYYCARDKGYSYYYSMDYWGQGTTVTVSSGGGGSQVQLVQSGAEVKKPGSSVKVSCKASGGTFSSYAISWVRQAPGQGLEWMGMINPSGGTTSYAQKFQGRVTMTRDTSTSTVYMELSSLRPEDTAVYYCARGFRMDQWGQGTLVTVSSGGGGSGGGGSGGGGSQSALTQPPSASGSPGQSVTISCTGTSSDVGAYNFVSWYQQHPGNAPKLIIYDVRKRPSGIPDRFSASKSGNTASLTVSGLQADDEADYYCSSYAGNNNLVFGGGTKLTVL
notes: as for B1
On to B10, for which the “% of cells in the positive gate” value with CD40-Fc [1] is 97.7; with CD40-Fc [2], 98.2.
